The source of these data is the nanobody polyreactivity screen of Harvey et al. (2022).

The nature of the data set: yeast display, Sf9 membrane polyspecificity reagent, FACS + sequencing; frameworks hold sequencing errors. Summed up:
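After 36–48 hours of galactose induction, yeast (Saccharomyces cerevisiae BJ5465) displaying a synthetic nanobody library were stained at 4 °C for 1 hour with 10% biotinylated, detergent-solubilized Sf9 membrane reagent. Streptavidin microbeads enriched the stained cells before FACS sorting into low and high (top ~1%) gates on anti-HA and streptavidin fluorescence. Each clone's polyreactivity label reflects its gate of origin.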
Take “QVQLVESGGGLVQAGGSLRLSCAASGSIFRYNALGWYRQAPGKEREFVAAITRSGGSTYADSVKGRFTISRDNAKNTVYLQMNSLKPEDTAVYYCAATFKWYSHTKPRFDYWGQGTQVTVSS”: the “polyreactivity (PSR sort gate)” value is recorded as “low polyreactivity”.

Turning to “QVQLVESGGGLVQAGGSLRLSCAASGFIFPANAMGWYRQAPGKERQFVAAITRRGGSTYYADSVKGRFTISRDNAKNTVYLKMNSLKPEDTAVYYCAARVLSLYTYYYWGQGTQVTVYS”, the “polyreactivity (PSR sort gate)” value is given as “high polyreactivity”.

Consider “QVQLVESGGGLVQAGGSLLLSCAASGFNFTYYTMGWYRQAPGKERELVAAISYSGGSTYYAESVKGRFTISRDNAKNSVYLQMNSLKPEDTAVYYCAVRVSDKYISKRFEYWGQGTEVTVSS”, for which the “polyreactivity (PSR sort gate)” value is “high polyreactivity”.

As to “QVQLVESGGGLDQAGGSLRLSCAASGSTFQPYAMGRYRQAPGKEREFVATISGSAGSTYYADSVKGRFKISRDNANYTVYLQMNSLKPEDTAVYYCNADSGWFGYDYWGQGNQVTVSS”, the “polyreactivity (PSR sort gate)” value is reported as “low polyreactivity”.

Regarding “QVQHVESGGGLVQAGGSLRLSCAASGSINSNAMGWYRQARGKERELVAAISGSGSTTYYADSVKGRFTISRDNAKNTVYLKMNSLKPEDTAVYYCARGVYGRGRTERYYWGQGTQVIVSS”, the “polyreactivity (PSR sort gate)” value was “high polyreactivity”.

For “QVQLVESGGGLVQAGGSLRLSCAASGSIFKYNTMGWYRQAPGKERELVAAIRYSGGRTYYADSVKGRFTISRDYAKNTVYLQMNSLKPEDTAVYYCAAGSIQYRPTYTGDYWGQGTQVTVSS”, the “polyreactivity (PSR sort gate)” value is given as “high polyreactivity”.

For the sequence “QVQLQESGGGPVLAGGSLRLSCAASGTIFVRLDMGWYRPAPGKEREFVATIGSGSSTYYADSVKGSFTISRDNVKNTVYLQMNSLQPEDTAVYYCAVSAAEQSRHYYWDQGTQVTVSS”, the “polyreactivity (PSR sort gate)” value is “low polyreactivity”.

As for “QVQLVESGGGLLQAGGSLRLSCAASGFTFRSYDMGWYRQAPGKERELVAAISWRGGRTYYADSVKGRFTISRDNAKNTVDLQMNSLKPEDTAVYYCATDWYWGSYAPYTTRAHFDYWGQGTQVTVSS”, the “polyreactivity (PSR sort gate)” value is “high polyreactivity”.

With “QVQLVESGGRLVQAGGSHRLRCAASGFIFKHNAMGWYRQAPGQEREFVARISWSGGSTRYADSVKGRFTISRDNAKNTVYLQMNSLKPEDTAVYYCAADQLGNDMDYWGQGTQVTVSS”, the “polyreactivity (PSR sort gate)” value is listed as “low polyreactivity”.

“QVQLVESGGGLVQAGGSLRLSCAASGRIFARNTMGWYRQAPGKERELVAAISWGGGRTYYADSVKGRFTISRDNAKNTVYLQMNSLKPEDTAVYYCAAETLQIPRGEYWGQGTQVNVSS”: the “polyreactivity (PSR sort gate)” value was “low polyreactivity”.

Consider “QVQLVESGGGLVQAGGSLRLSCAASGSTFVYNAMGGYSQAPGKERELGASISRGGGITYYADSVKGRFTISRDNAKNTVYLQMNSLKPEDTAVYYCAKTKGYRGHYYYWGQGTQVTVSS”, for which the “polyreactivity (PSR sort gate)” value is recorded as “high polyreactivity”.

On to “QVQLVESGGGLVQAGGSLRLSCAASGSIFPGNAMGGYRQAPGKERELVAAIRGGGSTNYADSVKGRFTISRDTAKNTVYIQMNSLKPEDTAVYYCAAQGILGSYDYWGQGTQVTVSS”, for which the “polyreactivity (PSR sort gate)” value is reported as “low polyreactivity”.

As to “QVQLVESGGGLVQAGGSLRLSCAASGFIFTKYVMGWYRQAPGKERELVAAISLNGGRTYYADSVKGRFTISRDNAKNTVDLQMNSLKPEDTAVYYCAVDAKAVSARTYDYGYWGQGTQVTVSS”, the “polyreactivity (PSR sort gate)” value is “high polyreactivity”.

“QVQLVESGGGLDQAGGSLRLICAASGFTITNNAMGWYRQAPGKEREFVAAISASGGSTYYADSVKGRFTISRDNAKNTVYLQMNSLKPEDTAVYYCAVEPVYIVSEVLFDYWGQGTEVTVSS”: the “polyreactivity (PSR sort gate)” value is reported as “low polyreactivity”.

In the case of “QVQLVESGGGLVQAGGSLRLSCAASGRTFQVYAMGWYRQAPGKERELVAAISSSGGITYYADSVKGRFTISRDNAKNTVYLQMNSLKPEDTAVYYCNTLYVSSNEYWGQGTQVTVSS”, the “polyreactivity (PSR sort gate)” value was “high polyreactivity”.

Consider “QVQLVESGGGLVQAGGSLRLSCAASGRIFGFYTIGWYRQAPGKERELVATISWSGSGTYYADSVKGRFTISRDNAKNTVYLQMNSLKPEDTAVYYCNADWYYVGYDYWGQGTQVTVSS”, for which the “polyreactivity (PSR sort gate)” value is “low polyreactivity”.

Consider “QVHLVESGGGLVKAGGSLRLSCSASGSIFTYNAMGWYRQAPGKERELVAAISSRGTSTYYSDSVKGRFTISRDNAKNTVYLQMNSLKPEDTAVYYCAAVWVSQRRPWGNTNNYWGQGTQVTVSS”, for which the “polyreactivity (PSR sort gate)” value is recorded as “high polyreactivity”.

In the case of “QVQLVESGGGLVQAGGSLRLSCAASGRTFSVNAMGWYRQAPGKERELVAAISWDGGSTYYADSVKGRFTISRDNAKNTVYLQMNSLKPEDTAVYYCNADYSIPGYYWPYDYWGQGTQVTVSS”, the “polyreactivity (PSR sort gate)” value is reported as “low polyreactivity”.

Consider “QVQLVESGGGLVQAGGSLRLSCAASGITFPSYVMGWYRQAPGKERELVAAISWRGGSTYYADSVKGRFTISRDNAKNTVYLQMNSLKPEDTAVYYCAAGSARDDDYWGQGTQVTVSS”, for which the “polyreactivity (PSR sort gate)” value is on record as “high polyreactivity”.

Take “QVQLVESGGGLVQAGGSLRLSCAASGFIFYYYDMGWYRQAPGKERELVAAITYDGGSTYYADSVKGRFTSSRDNAKNTVYLQMNSLKPEDTAVYYCNAVYGQYYDYWGQGTQVTVSS”: the “polyreactivity (PSR sort gate)” value was “low polyreactivity”.

“QVQLVESGGGLVQAGGSLRLSCAASGIIISVYALGWYRQAPGKERELVATISLSSGRTYYADSVKGRFTISRDNAKNTVYFQMNCLKPEDTAVYYCNAGGRTASRRYYWGQGTQVTVSS”: the “polyreactivity (PSR sort gate)” value is listed as “low polyreactivity”.

“QVQLVESGGGLVQAGGSLRLSCAASGSTFDPYGMGWYRQAPGKERELVAAITSSGRTNYADSVKGRFTISRDNAKNTVYLQMKSLKPEDTAVYYCATRKERYFYRGYEYWGQGTQVTVSS”: the “polyreactivity (PSR sort gate)” value was “low polyreactivity”.

Regarding “QVQLVESGGGLVQAGGSLRLSCAASGNIFYYYAMGWYRQAPGKERELVAAISNGITYYADSVKGRFTISRDNAKNTVYLQMNSLKPEDTAVYYCAVDSDGNVRAVSGESLYDYWGQGTQVTVSS”, the “polyreactivity (PSR sort gate)” value is on record as “low polyreactivity”.

“QVQLVESGRGFVQAGGRLRLSCAASGRTFGRYTMGWYRQAPGKDRELVASISNTARTNYADSVKGRFTISRDNAKNTVYLQMNSLKPEDTAVYYCAATYIVRYGYWGQGTQVTVSS”: the “polyreactivity (PSR sort gate)” value is recorded as “low polyreactivity”.

Consider “QVQLVESGGGLVQARGSLRLSCAASGSIFSIYAMGWYRPAPGTERELVASITRSSGRTYYADSVKGRFTISRDNAKNTVYLQMISLKPEDTAVYYCAKDYIPLALDADDYWGQGTQVTVSS”, for which the “polyreactivity (PSR sort gate)” value is on record as “low polyreactivity”.

Consider “QVQLVESGGGLVQAGGSLRLSCEASGSTFLRNAMGWYRQAPGKKGSWVATISYAGDSTYYADSVKGRFTLSRDNAKNTVYLQMNSLKPEDTAVYYCAASYSLTFWDKDDYWGQGTQVTVSS”, for which the “polyreactivity (PSR sort gate)” value is listed as “low polyreactivity”.

On to “QVQLVESGGGLVEAGGSLRLSCADSGRIFLRNAMGWSRQAPGKERELVAAINRGGRTNYADSVKGRFTISRDNAKNTVYLQMNSLKPEDTAVYYCATERESPGYTEYDSWGQGTQVTVSS”, for which the “polyreactivity (PSR sort gate)” value was “low polyreactivity”.

For “QVQVVESGGGLVQAGGSLRLSCAASGRIFSHNAMGWYRQAPGNEWELVAGISSGGGTTYADSVKGRFTLSRDNAKNTVYLQMNSLKPEDTAVYYCNKQDQPVGRSGYPYGYDYWGQGTQVTVSS”, the “polyreactivity (PSR sort gate)” value is given as “low polyreactivity”.

As to “QVQLVESGGGLVQAGGSLRLSCAASGSIFWWYTMGRYRQAPGKERELVAAITWNADGTYYADSVKGRFTISRDNAKNTVYLQMNSLKPEDTAVYYCAADQYYLDWGGGYDYWGQGPQVTVSS”, the “polyreactivity (PSR sort gate)” value is “low polyreactivity”.

Turning to “QDQLVESGGGLVQAGGSLRLSCAASGITSNPYDMGWYRQAAGKERELVAVITSGGSTSYADSVKGRFTISRDNAKNTVYLQLISLKREDTAVYYCNSVYAGWRGGNYWGQGTQVTVSS”, the “polyreactivity (PSR sort gate)” value is listed as “low polyreactivity”.
